In patent US20200079833A1 (AstraZeneca / MedImmune, published 2020):
Starred links: 1 amine or outer side, 2 acyl side, 3 side chain; linkers in the order of their positions; H or OH if unused. Non-standard residues stand in square brackets, D forms with d. Groups on a side chain read outwards from the residue. Primed or numbered codes have the meaning given here. No end group written: not given here. *: point of attachment. γGlu = O=C(O)[C@H](CCC(=O)[*:2])N[*:1]; Stearoyl = CCCCCCCCCCCCCCCCCC(=O)*; Palmitoyl = CCCCCCCCCCCCCCCC(=O)*; αMeF = C[C@](N)(Cc1ccccc1)C(=O)O; αMeK = C[C@](N)(CCCCN)C(=O)O; αMeS = C[C@](N)(CO)C(=O)O; PEG2′ = not defined here; Aib = CC(C)(N)C(=O)O; Ahx = NCCCCCC(=O)O

T1: glucose-dependent insulinotropic peptide (gastric inhibitory polypeptide) receptor (GIPR) (human, UniProt P48546 22-466)
T1 sequence (looked up): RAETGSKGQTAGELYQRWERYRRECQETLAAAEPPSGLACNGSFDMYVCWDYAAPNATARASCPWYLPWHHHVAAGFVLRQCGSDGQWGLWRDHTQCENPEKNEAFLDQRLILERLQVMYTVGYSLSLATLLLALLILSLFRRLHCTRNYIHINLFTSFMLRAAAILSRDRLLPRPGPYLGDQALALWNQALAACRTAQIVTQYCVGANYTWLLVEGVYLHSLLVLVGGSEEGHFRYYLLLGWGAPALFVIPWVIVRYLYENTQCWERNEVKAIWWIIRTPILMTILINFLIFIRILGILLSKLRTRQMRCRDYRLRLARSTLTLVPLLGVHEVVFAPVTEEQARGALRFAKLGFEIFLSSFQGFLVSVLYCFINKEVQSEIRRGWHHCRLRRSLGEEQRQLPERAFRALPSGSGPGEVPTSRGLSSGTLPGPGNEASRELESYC


Assays:
Experiment in all cases: cell-based or functional assay
[1] = target: GLP-1 receptor (GLP-1R) (human, UniProt P43220 24-463)
[2] = target: T1, glucose-dependent insulinotropic …
[3] = target: glucagon receptor (GCGR) (human, UniProt P47871 26-477)
Chain of glucagon receptor (GCGR) (P47871 26-477): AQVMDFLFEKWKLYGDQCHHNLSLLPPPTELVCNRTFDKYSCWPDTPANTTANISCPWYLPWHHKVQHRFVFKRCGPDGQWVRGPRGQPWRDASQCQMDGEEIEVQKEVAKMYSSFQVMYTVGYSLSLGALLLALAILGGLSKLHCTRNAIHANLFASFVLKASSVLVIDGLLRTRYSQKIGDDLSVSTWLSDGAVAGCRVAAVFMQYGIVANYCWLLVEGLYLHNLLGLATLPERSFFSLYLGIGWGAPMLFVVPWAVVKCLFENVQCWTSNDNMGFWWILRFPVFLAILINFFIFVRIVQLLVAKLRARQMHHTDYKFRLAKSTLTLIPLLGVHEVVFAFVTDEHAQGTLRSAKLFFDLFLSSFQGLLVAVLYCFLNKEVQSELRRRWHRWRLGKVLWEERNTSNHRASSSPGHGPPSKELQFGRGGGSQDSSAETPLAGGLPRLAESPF

| Binder | cAMP Mean pM GLP-1R [1] | cAMP Primary assay EC50 GLP-1R n1 [1] | cAMP Primary assay EC50 GLP-1R n2 [1] | cAMP Primary assay EC50 GIP-R [2] | cAMP Primary assay EC50 GIP-R (2nd) [2] | cAMP Primary assay EC50 Gluc-R [3] | cAMP Primary assay EC50 Gluc-R (2nd) [3] |
| --- | --- | --- | --- | --- | --- | --- | --- |
| H[Aib]EGS[αMeF]TSDV[αMeS]S[αMeF]LEGEK([γGlu-Palmitoyl])A[αMeK]E[αMeF]IA[αMeF]VV[αMeK]GG-NH2 (N-terminus assumed; SMILES CCCCCCCCCCCCCCCC(=O)N[C@@H](CCC(=O)NCCCC[C@H](NC(=O)[C@H](CCC(=O)O)NC(=O)CNC(=O)[C@H](CCC(=O)O)NC(=O)[C@H](CC(C)C)NC(=O)[C@](C)(Cc1ccccc1)NC(=O)[C@H](CO)NC(=O)[C@](C)(CO)NC(=O)[C@@H](NC(=O)[C@H](CC(=O)O)NC(=O)[C@H](CO)NC(=O)[C@@H](NC(=O)[C@](C)(Cc1ccccc1)NC(=O)[C@H](CO)NC(=O)CNC(=O)[C@H](CCC(=O)O)NC(=O)C(C)(C)NC(=O)[C@@H](N)Cc1c[nH]cn1)[C@@H](C)O)C(C)C)C(=O)N[C@@H](C)C(=O)N[C@@](C)(CCCCN)C(=O)N[C@@H](CCC(=O)O)C(=O)N[C@@](C)(Cc1ccccc1)C(=O)N[C@H](C(=O)N[C@@H](C)C(=O)N[C@@](C)(Cc1ccccc1)C(=O)N[C@H](C(=O)N[C@H](C(=O)N[C@@](C)(CCCCN)C(=O)NCC(=O)NCC(N)=O)C(C)C)C(C)C)[C@@H](C)CC)C(=O)O) [SEQ ID NO 82] | 2.5 pM | 0.003 nM | 0.002 nM | 27 nM | 27 nM | 27 nM | 27 nM |
| H[Aib]EGS[αMeF]TSDV[αMeS]S[αMeF]LEGEAAK([Ahx-Ahx-Ahx-Stearoyl])E[αMeF]IA[αMeF]VV[αMeK]GG-NH2 (N-terminus assumed; SMILES CCCCCCCCCCCCCCCCCC(=O)NCCCCCC(=O)NCCCCCC(=O)NCCCCCC(=O)NCCCC[C@H](NC(=O)[C@H](C)NC(=O)[C@H](C)NC(=O)[C@H](CCC(=O)O)NC(=O)CNC(=O)[C@H](CCC(=O)O)NC(=O)[C@H](CC(C)C)NC(=O)[C@](C)(Cc1ccccc1)NC(=O)[C@H](CO)NC(=O)[C@](C)(CO)NC(=O)[C@@H](NC(=O)[C@H](CC(=O)O)NC(=O)[C@H](CO)NC(=O)[C@@H](NC(=O)[C@](C)(Cc1ccccc1)NC(=O)[C@H](CO)NC(=O)CNC(=O)[C@H](CCC(=O)O)NC(=O)C(C)(C)NC(=O)[C@@H](N)Cc1c[nH]cn1)[C@@H](C)O)C(C)C)C(=O)N[C@@H](CCC(=O)O)C(=O)N[C@@](C)(Cc1ccccc1)C(=O)N[C@H](C(=O)N[C@@H](C)C(=O)N[C@@](C)(Cc1ccccc1)C(=O)N[C@H](C(=O)N[C@H](C(=O)N[C@@](C)(CCCCN)C(=O)NCC(=O)NCC(N)=O)C(C)C)C(C)C)[C@@H](C)CC) [SEQ ID NO 151] | 18.2 pM | 0.022 nM | 0.015 nM | 26 nM | 26 nM | 26 nM | 26 nM |
| H[Aib]EGS[αMeF]TSDV[αMeS]S[αMeF]LEGEAAK([PEG2′-Stearoyl])E[αMeF]IA[αMeF]VV[αMeK]GG-NH2 [SEQ ID NO 152] | 34.7 pM | 0.039 nM | 0.031 nM | 28 nM | 28 nM | 28 nM | 28 nM |
| H[Aib]EGS[αMeF]TSDV[αMeS]S[αMeF]LEGEAA[αMeK]K([γGlu-Palmitoyl])[αMeF]IA[αMeF]VV[αMeK]GG-NH2 (N-terminus assumed; SMILES CCCCCCCCCCCCCCCC(=O)N[C@@H](CCC(=O)NCCCC[C@H](NC(=O)[C@](C)(CCCCN)NC(=O)[C@H](C)NC(=O)[C@H](C)NC(=O)[C@H](CCC(=O)O)NC(=O)CNC(=O)[C@H](CCC(=O)O)NC(=O)[C@H](CC(C)C)NC(=O)[C@](C)(Cc1ccccc1)NC(=O)[C@H](CO)NC(=O)[C@](C)(CO)NC(=O)[C@@H](NC(=O)[C@H](CC(=O)O)NC(=O)[C@H](CO)NC(=O)[C@@H](NC(=O)[C@](C)(Cc1ccccc1)NC(=O)[C@H](CO)NC(=O)CNC(=O)[C@H](CCC(=O)O)NC(=O)C(C)(C)NC(=O)[C@@H](N)Cc1c[nH]cn1)[C@@H](C)O)C(C)C)C(=O)N[C@@](C)(Cc1ccccc1)C(=O)N[C@H](C(=O)N[C@@H](C)C(=O)N[C@@](C)(Cc1ccccc1)C(=O)N[C@H](C(=O)N[C@H](C(=O)N[C@@](C)(CCCCN)C(=O)NCC(=O)NCC(N)=O)C(C)C)C(C)C)[C@@H](C)CC)C(=O)O) [SEQ ID NO 79] | 3.1 pM | 0.0039 nM | 0.0023 nM | 28 nM | 28 nM | 28 nM | 28 nM |
| H[Aib]EGS[αMeF]TSDV[αMeS]S[αMeF]LEGEAAK([γGlu-Palmitoyl])E[αMeF]IA[αMeF]VV[αMeK]GG-NH2 (N-terminus assumed; SMILES CCCCCCCCCCCCCCCC(=O)N[C@@H](CCC(=O)NCCCC[C@H](NC(=O)[C@H](C)NC(=O)[C@H](C)NC(=O)[C@H](CCC(=O)O)NC(=O)CNC(=O)[C@H](CCC(=O)O)NC(=O)[C@H](CC(C)C)NC(=O)[C@](C)(Cc1ccccc1)NC(=O)[C@H](CO)NC(=O)[C@](C)(CO)NC(=O)[C@@H](NC(=O)[C@H](CC(=O)O)NC(=O)[C@H](CO)NC(=O)[C@@H](NC(=O)[C@](C)(Cc1ccccc1)NC(=O)[C@H](CO)NC(=O)CNC(=O)[C@H](CCC(=O)O)NC(=O)C(C)(C)NC(=O)[C@@H](N)Cc1c[nH]cn1)[C@@H](C)O)C(C)C)C(=O)N[C@@H](CCC(=O)O)C(=O)N[C@@](C)(Cc1ccccc1)C(=O)N[C@H](C(=O)N[C@@H](C)C(=O)N[C@@](C)(Cc1ccccc1)C(=O)N[C@H](C(=O)N[C@H](C(=O)N[C@@](C)(CCCCN)C(=O)NCC(=O)NCC(N)=O)C(C)C)C(C)C)[C@@H](C)CC)C(=O)O) [SEQ ID NO 80] | 24 pM | 0.031 nM | 0.017 nM | 28 nM | 28 nM | 28 nM | 28 nM |
| H[Aib]EGS[αMeF]TSDV[αMeS]S[αMeF]LEGEAK([γGlu-Palmitoyl])[αMeK]E[αMeF]IA[αMeF]VV[αMeK]GG-NH2 (N-terminus assumed; SMILES CCCCCCCCCCCCCCCC(=O)N[C@@H](CCC(=O)NCCCC[C@H](NC(=O)[C@H](C)NC(=O)[C@H](CCC(=O)O)NC(=O)CNC(=O)[C@H](CCC(=O)O)NC(=O)[C@H](CC(C)C)NC(=O)[C@](C)(Cc1ccccc1)NC(=O)[C@H](CO)NC(=O)[C@](C)(CO)NC(=O)[C@@H](NC(=O)[C@H](CC(=O)O)NC(=O)[C@H](CO)NC(=O)[C@@H](NC(=O)[C@](C)(Cc1ccccc1)NC(=O)[C@H](CO)NC(=O)CNC(=O)[C@H](CCC(=O)O)NC(=O)C(C)(C)NC(=O)[C@@H](N)Cc1c[nH]cn1)[C@@H](C)O)C(C)C)C(=O)N[C@@](C)(CCCCN)C(=O)N[C@@H](CCC(=O)O)C(=O)N[C@@](C)(Cc1ccccc1)C(=O)N[C@H](C(=O)N[C@@H](C)C(=O)N[C@@](C)(Cc1ccccc1)C(=O)N[C@H](C(=O)N[C@H](C(=O)N[C@@](C)(CCCCN)C(=O)NCC(=O)NCC(N)=O)C(C)C)C(C)C)[C@@H](C)CC)C(=O)O) [SEQ ID NO 81] | 283 pM | 0.37 nM | 0.2 nM | 27 nM | 27 nM | 27 nM | 27 nM |
| H[Aib]EGS[αMeF]TSDV[αMeS]S[αMeF]LEGEAA[αMeK]EK([γGlu-Palmitoyl])IA[αMeF]VV[αMeK]GG-NH2 (N-terminus assumed; SMILES CCCCCCCCCCCCCCCC(=O)N[C@@H](CCC(=O)NCCCC[C@H](NC(=O)[C@H](CCC(=O)O)NC(=O)[C@](C)(CCCCN)NC(=O)[C@H](C)NC(=O)[C@H](C)NC(=O)[C@H](CCC(=O)O)NC(=O)CNC(=O)[C@H](CCC(=O)O)NC(=O)[C@H](CC(C)C)NC(=O)[C@](C)(Cc1ccccc1)NC(=O)[C@H](CO)NC(=O)[C@](C)(CO)NC(=O)[C@@H](NC(=O)[C@H](CC(=O)O)NC(=O)[C@H](CO)NC(=O)[C@@H](NC(=O)[C@](C)(Cc1ccccc1)NC(=O)[C@H](CO)NC(=O)CNC(=O)[C@H](CCC(=O)O)NC(=O)C(C)(C)NC(=O)[C@@H](N)Cc1c[nH]cn1)[C@@H](C)O)C(C)C)C(=O)N[C@H](C(=O)N[C@@H](C)C(=O)N[C@@](C)(Cc1ccccc1)C(=O)N[C@H](C(=O)N[C@H](C(=O)N[C@@](C)(CCCCN)C(=O)NCC(=O)NCC(N)=O)C(C)C)C(C)C)[C@@H](C)CC)C(=O)O) [SEQ ID NO 78] | 14 pM | 0.018 nM | 0.0093 nM | 28 nM | 28 nM | 28 nM | 28 nM |
